Test results from the supplement of paper PMC6757056.
± gives the standard deviation of the averaged measurements.

B1: library; a variant is named by its letters at N, in order (parent)
chain: GCUGUCACCGGUGCUUGGUACGUUAUAUUCAGCCGGUCUGAUGAGUCUNNNNNNAGACGAAACAGC

Experiments:
[1] = variants of: B1; assay: normalized RNA/DNA level without ligand (relative to sTRSVctl = 100) (log10 (% of sTRSVctl)); HEK293T overexpressing SLC46A1; higher = less ribozyme self-cleavage, higher mRNA level; conditions: without (6R,S)-folinic acid; ligand present: no
Summary of the method: (§1)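 Total RNA, extracted with EDTA 72 h after HEK293T cells were transfected with 4 µg per 6-well well of reporter-linked ribozyme switch library plasmids, was reverse-transcribed, amplified, barcoded and sequenced. Ligand, if used, was added 1 h before transfection. RNA level was derived from RNA reads divided by DNA reads and normalized to a spiked-in non-cleaving sequence or to the top sequences. This was multiplied by 100 and log10-transformed, with the top set of 25 sequences and a ≥100 DNA read minimum.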

[2] = variants of: B1; assay: normalized RNA/DNA level with ligand (relative to sTRSVctl = 100) (log10 (% of sTRSVctl)); HEK293T overexpressing SLC46A1; ligand concentration (+) RNA-Seq: 6 mM; higher = less ribozyme self-cleavage, higher mRNA level; conditions: with (6R,S)-folinic acid; ligand present: yes
Summary of the method: as §1

Row | Variant | normalized RNA/DNA level without ligand (log10) [1] | normalized RNA/DNA level with ligand (log10) [2]
1 | GCUGUCACCGGUGCUUGGUACGUUAUAUUCAGCCGGUCUGAUGAGUCUUCUCCUAGACGAAACAGC [UCUCCU] | 2.01 ± 0.028 | 2.02 ± 0.032
2 | GCUGUCACCGGUGCUUGGUACGUUAUAUUCAGCCGGUCUGAUGAGUCUAACGGAAGACGAAACAGC [AACGGA] | 1.969 ± 0.019 | 2.02 ± 0.028
3 | GCUGUCACCGGUGCUUGGUACGUUAUAUUCAGCCGGUCUGAUGAGUCUAGCUAAAGACGAAACAGC [AGCUAA] | 2 ± 0.033 | 1.999 ± 0.0025
4 | GCUGUCACCGGUGCUUGGUACGUUAUAUUCAGCCGGUCUGAUGAGUCUAUUGACAGACGAAACAGC [AUUGAC] | 1.99 ± 0.016 | 1.97 ± 0.046
5 | GCUGUCACCGGUGCUUGGUACGUUAUAUUCAGCCGGUCUGAUGAGUCUUUACACAGACGAAACAGC [UUACAC] | 2.003 ± 0.0021 | 1.99 ± 0.038
6 | GCUGUCACCGGUGCUUGGUACGUUAUAUUCAGCCGGUCUGAUGAGUCUUACACUAGACGAAACAGC [UACACU] | 2.017 ± 0.0061 | 2.03 ± 0.037
7 | GCUGUCACCGGUGCUUGGUACGUUAUAUUCAGCCGGUCUGAUGAGUCUACACACAGACGAAACAGC [ACACAC] | 2.019 ± 0.0045 | 2.01 ± 0.058
8 | GCUGUCACCGGUGCUUGGUACGUUAUAUUCAGCCGGUCUGAUGAGUCUUUCCAGAGACGAAACAGC [UUCCAG] | 1.91 ± 0.021 | 1.99 ± 0.034
9 | GCUGUCACCGGUGCUUGGUACGUUAUAUUCAGCCGGUCUGAUGAGUCUCUUACUAGACGAAACAGC [CUUACU] | 2 ± 0.023 | 2.02 ± 0.047
10 | GCUGUCACCGGUGCUUGGUACGUUAUAUUCAGCCGGUCUGAUGAGUCUGAAUUUAGACGAAACAGC [GAAUUU] | 2.029 ± 0.01 | 2.01 ± 0.022
11 | GCUGUCACCGGUGCUUGGUACGUUAUAUUCAGCCGGUCUGAUGAGUCUAGCUGAAGACGAAACAGC [AGCUGA] | 2.0496 ± 0.0016 | 2.028 ± 0.014
12 | GCUGUCACCGGUGCUUGGUACGUUAUAUUCAGCCGGUCUGAUGAGUCUAGCUUAAGACGAAACAGC [AGCUUA] | 1.996 ± 0.0022 | 2.01 ± 0.062
13 | GCUGUCACCGGUGCUUGGUACGUUAUAUUCAGCCGGUCUGAUGAGUCUUUUUCGAGACGAAACAGC [UUUUCG] | 1.87 ± 0.018 | 1.998 ± 0.0083
14 | GCUGUCACCGGUGCUUGGUACGUUAUAUUCAGCCGGUCUGAUGAGUCUCUAUGGAGACGAAACAGC [CUAUGG] | 1.97 ± 0.03 | 2.039 ± 0.014
15 | GCUGUCACCGGUGCUUGGUACGUUAUAUUCAGCCGGUCUGAUGAGUCUGUUGAUAGACGAAACAGC [GUUGAU] | 1.97 ± 0.021 | 2.003 ± 0.019
16 | GCUGUCACCGGUGCUUGGUACGUUAUAUUCAGCCGGUCUGAUGAGUCUAGACCCAGACGAAACAGC [AGACCC] | 2.039 ± 0.0085 | 2.02 ± 0.055
17 | GCUGUCACCGGUGCUUGGUACGUUAUAUUCAGCCGGUCUGAUGAGUCUUCGCUAAGACGAAACAGC [UCGCUA] | 2.021 ± 0.015 | 2.07 ± 0.035
18 | GCUGUCACCGGUGCUUGGUACGUUAUAUUCAGCCGGUCUGAUGAGUCUUCGCUCAGACGAAACAGC [UCGCUC] | 2.04 ± 0.028 | 2.04 ± 0.059
19 | GCUGUCACCGGUGCUUGGUACGUUAUAUUCAGCCGGUCUGAUGAGUCUCUAGCGAGACGAAACAGC [CUAGCG] | 2.0229 ± 0.0015 | 2.05 ± 0.042
20 | GCUGUCACCGGUGCUUGGUACGUUAUAUUCAGCCGGUCUGAUGAGUCUACAUCUAGACGAAACAGC [ACAUCU] | 2.024 ± 0.011 | 2.03 ± 0.037
21 | GCUGUCACCGGUGCUUGGUACGUUAUAUUCAGCCGGUCUGAUGAGUCUCCUCACAGACGAAACAGC [CCUCAC] | 2.0541 ± 0.0006 | 2.027 ± 0.013

Row | Variant | normalized RNA/DNA level without ligand (log10) [1] | normalized RNA/DNA level with ligand (log10) [2]
22 | GCUGUCACCGGUGCUUGGUACGUUAUAUUCAGCCGGUCUGAUGAGUCUGCCCUCAGACGAAACAGC [GCCCUC] | 2.047 ± 0.015 | 2.03 ± 0.065
23 | GCUGUCACCGGUGCUUGGUACGUUAUAUUCAGCCGGUCUGAUGAGUCUCUAACAAGACGAAACAGC [CUAACA] | 2.026 ± 0.012 | 2.03 ± 0.043
24 | GCUGUCACCGGUGCUUGGUACGUUAUAUUCAGCCGGUCUGAUGAGUCUUACAGCAGACGAAACAGC [UACAGC] | 1.991 ± 0.0074 | 2.02 ± 0.05
25 | GCUGUCACCGGUGCUUGGUACGUUAUAUUCAGCCGGUCUGAUGAGUCUCAACGUAGACGAAACAGC [CAACGU] | 2.024 ± 0.0058 | 2.037 ± 0.019
26 | GCUGUCACCGGUGCUUGGUACGUUAUAUUCAGCCGGUCUGAUGAGUCUUUCGGAAGACGAAACAGC [UUCGGA] | 1.961 ± 0.0071 | 2.024 ± 0.0051
27 | GCUGUCACCGGUGCUUGGUACGUUAUAUUCAGCCGGUCUGAUGAGUCUUUUCAAAGACGAAACAGC [UUUCAA] | 1.997 ± 0.0084 | 2.01 ± 0.029
28 | GCUGUCACCGGUGCUUGGUACGUUAUAUUCAGCCGGUCUGAUGAGUCUUGACACAGACGAAACAGC [UGACAC] | 2.002 ± 0.0083 | 2.008 ± 0.0047
29 | GCUGUCACCGGUGCUUGGUACGUUAUAUUCAGCCGGUCUGAUGAGUCUGCGUUAAGACGAAACAGC [GCGUUA] | 2.003 ± 0.0039 | 2.02 ± 0.036
30 | GCUGUCACCGGUGCUUGGUACGUUAUAUUCAGCCGGUCUGAUGAGUCUAACUCAAGACGAAACAGC [AACUCA] | 2.03 ± 0.0039 | 2.003 ± 0.016
31 | GCUGUCACCGGUGCUUGGUACGUUAUAUUCAGCCGGUCUGAUGAGUCUUCCUUCAGACGAAACAGC [UCCUUC] | 2.084 ± 0.002 | 2.05 ± 0.035
32 | GCUGUCACCGGUGCUUGGUACGUUAUAUUCAGCCGGUCUGAUGAGUCUAUUCGGAGACGAAACAGC [AUUCGG] | 1.952 ± 0.017 | 2.04 ± 0.026
33 | GCUGUCACCGGUGCUUGGUACGUUAUAUUCAGCCGGUCUGAUGAGUCUACGGCGAGACGAAACAGC [ACGGCG] | 2.015 ± 0.0037 | 2.0489 ± 0.00014
34 | GCUGUCACCGGUGCUUGGUACGUUAUAUUCAGCCGGUCUGAUGAGUCUCCUGACAGACGAAACAGC [CCUGAC] | 2 ± 0.0059 | 1.993 ± 0.0097
35 | GCUGUCACCGGUGCUUGGUACGUUAUAUUCAGCCGGUCUGAUGAGUCUUGCCUUAGACGAAACAGC [UGCCUU] | 2.0129 ± 0.0012 | 2.011 ± 0.018
36 | GCUGUCACCGGUGCUUGGUACGUUAUAUUCAGCCGGUCUGAUGAGUCUUGGGCUAGACGAAACAGC [UGGGCU] | 2.06 ± 0.024 | 2.04 ± 0.025
37 | GCUGUCACCGGUGCUUGGUACGUUAUAUUCAGCCGGUCUGAUGAGUCUUAUGAAAGACGAAACAGC [UAUGAA] | 1.873 ± 0.016 | 1.98 ± 0.023
38 | GCUGUCACCGGUGCUUGGUACGUUAUAUUCAGCCGGUCUGAUGAGUCUGACCCAAGACGAAACAGC [GACCCA] | 2.018 ± 0.0089 | 2 ± 0.04
39 | GCUGUCACCGGUGCUUGGUACGUUAUAUUCAGCCGGUCUGAUGAGUCUACCCAGAGACGAAACAGC [ACCCAG] | 1.98 ± 0.01 | 2 ± 0.044
40 | GCUGUCACCGGUGCUUGGUACGUUAUAUUCAGCCGGUCUGAUGAGUCUCCACCCAGACGAAACAGC [CCACCC] | 2.038 ± 0.011 | 1.994 ± 0.014
41 | GCUGUCACCGGUGCUUGGUACGUUAUAUUCAGCCGGUCUGAUGAGUCUACGCAUAGACGAAACAGC [ACGCAU] | 1.987 ± 0.012 | 2.01 ± 0.014
